This note sets out measurements from IntAct's records for PubMed 16606821.

The chains are these.
B1: Insulin-induced gene 1 protein (Homo sapiens), O15503-1 (parent)
chain: MPRLHDHFWSCSCAHSARRRGPPRASAAGLAAKVGEMINVSVSGPSLLAAHGAPDADPAPRGRSAAMSGPEPGSPYPNTWHHRLLQRSLVLFSVGVVLALVLNLLQIQRNVTLFPEEVIATIFSSAWWVPPCCGTAAAVVGLLYPCIDSHLGEPHKFKREWASVMRCIAVFVGINHASAKLDFANNVQLSLTLAALSLGLWWTFDRSRSGLGLGITIAFLATLITQFLVYNGVYQYTSPDFLYIRSWLPCIFFSGGVTVGNIGRQLAMGVPEKPHSD
partner: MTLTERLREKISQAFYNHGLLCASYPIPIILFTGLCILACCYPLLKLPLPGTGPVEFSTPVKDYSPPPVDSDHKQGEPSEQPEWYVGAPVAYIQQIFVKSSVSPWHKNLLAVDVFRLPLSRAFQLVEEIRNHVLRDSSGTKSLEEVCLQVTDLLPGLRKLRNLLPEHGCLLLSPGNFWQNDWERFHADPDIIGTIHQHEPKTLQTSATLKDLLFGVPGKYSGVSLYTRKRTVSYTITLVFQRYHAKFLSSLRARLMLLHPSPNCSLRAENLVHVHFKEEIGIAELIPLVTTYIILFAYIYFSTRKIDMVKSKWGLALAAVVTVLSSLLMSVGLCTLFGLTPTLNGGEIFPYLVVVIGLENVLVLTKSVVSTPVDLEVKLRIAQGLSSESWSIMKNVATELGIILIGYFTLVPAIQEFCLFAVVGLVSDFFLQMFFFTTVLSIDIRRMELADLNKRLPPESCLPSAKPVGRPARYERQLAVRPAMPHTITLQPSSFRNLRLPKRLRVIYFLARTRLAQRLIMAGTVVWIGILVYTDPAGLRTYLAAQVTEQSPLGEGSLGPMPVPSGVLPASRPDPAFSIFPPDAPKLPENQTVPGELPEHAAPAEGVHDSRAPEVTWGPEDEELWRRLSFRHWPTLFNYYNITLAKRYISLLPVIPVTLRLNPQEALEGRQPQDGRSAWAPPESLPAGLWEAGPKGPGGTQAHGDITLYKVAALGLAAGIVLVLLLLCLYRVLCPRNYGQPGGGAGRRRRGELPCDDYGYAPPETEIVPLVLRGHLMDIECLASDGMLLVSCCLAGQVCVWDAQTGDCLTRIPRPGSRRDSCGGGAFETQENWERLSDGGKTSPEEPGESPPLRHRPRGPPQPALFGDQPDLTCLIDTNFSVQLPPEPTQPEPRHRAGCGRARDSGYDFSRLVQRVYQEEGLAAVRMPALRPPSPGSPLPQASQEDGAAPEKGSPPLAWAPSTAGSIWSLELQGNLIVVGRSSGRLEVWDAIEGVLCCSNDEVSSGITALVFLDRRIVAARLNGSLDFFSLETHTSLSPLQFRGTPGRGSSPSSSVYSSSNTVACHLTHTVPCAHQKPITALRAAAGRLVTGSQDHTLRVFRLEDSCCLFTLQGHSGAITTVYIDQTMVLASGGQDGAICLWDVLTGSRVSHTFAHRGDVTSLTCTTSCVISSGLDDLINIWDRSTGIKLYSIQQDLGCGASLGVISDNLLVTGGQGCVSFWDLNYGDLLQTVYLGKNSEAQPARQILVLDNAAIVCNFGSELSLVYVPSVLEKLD

The assay covers variants of B1. The settings on record: with scap_crigr SCAP.
For D205A, the “effect of a mutation on the interaction” value is recorded as “disrupting interaction strength”.
